Measured values as given in publication PMC10034513.
Values belong to the substance of their own block, whether it stands above or below them.

How the values were obtained:
[1] = SEC-MALS; 100 μl at 1 mg/ml, filtered through 0.22 μm before loading; 50 mM Tris pH 8.0, 150 mM KCl, 5 mM βME, 5% glycerol; run at room temperature
[2] = target: P74-26 TTP L229A variant (bacteriophage P74-26); assay: light scattering of tube assembly; filtered TTP at ~1 mg/ml, scattering at 350 nm over time; wild type at 4, 20, 25, 37 and 50 °C and a concentration series at 37 °C; variants at 20 °C
[3] = target: P74-26 TTP Q167A variant (bacteriophage P74-26); assay: SEC-MALS; 100 μl at 1 mg/ml, filtered through 0.22 μm before loading; 50 mM Tris pH 8.0, 150 mM KCl, 5 mM βME, 5% glycerol; run at room temperature
[4] = target: P74-26 tail tube protein (TTP), gp93, in tails of purified virions (bacteriophage P74-26); assay: cryo-EM structure; tails of purified P74-26 virions, segmented helical reconstruction (C3, rise 40.25 Å, twist -44.75°)
[5] = target: P74-26 tail tube protein (TTP), gp93, recombinant wild type (bacteriophage P74-26); assay: light scattering of tube assembly; filtered TTP at ~1 mg/ml, scattering at 350 nm over time; wild type at 4, 20, 25, 37 and 50 °C and a concentration series at 37 °C; variants at 20 °C
[6] = target: P74-26 tail tube protein (TTP), gp93, recombinant wild type (bacteriophage P74-26); assay: SEC-MALS; 100 μl at 1 mg/ml, filtered through 0.22 μm before loading; 50 mM Tris pH 8.0, 150 mM KCl, 5 mM βME, 5% glycerol; run at room temperature

Substance: P74-26 tail tube protein (TTP), gp93, recombinant wild type
mass fraction of the monomer peak [1]: ∼76% mass fraction

Substance: P74-26 TTP Q167A variant (natural protein)
stoichiometry N [3]: 3

Substance: P74-26 tail tube protein (TTP), gp93, recombinant wild type (natural protein)
fast-phase tube growth rate at 37 °C relative to the 20 °C rate (fold (× the 20 °C rate)) [5]: 68
fast-phase tube growth rate at 50 °C relative to the 20 °C rate (fold (× the 20 °C rate)) [5]: 3520
mass fraction of the hexamer peak [6]: 6%
stoichiometry N [6]: 6

Continued, values first:

tube formation rate relative to WT (% of the WT rate) [2]: 10
Substance: P74-26 TTP L229A variant (natural protein)

stoichiometry N [4]: 3
Substance: P74-26 tail tube protein (TTP), gp93, in tails of purified virions (natural protein)
